Results published in article PMC11098746 (2024).
No end group written: not given here.

The binders below were run against Circumsporozoite protein (CSP) (Plasmodium falciparum (isolate 3D7), UniProt Q7K740) (assay: AVEXIS screen signal:noise (double-corrected)).
Sequence of Circumsporozoite protein (CSP) (Q7K740 19-374): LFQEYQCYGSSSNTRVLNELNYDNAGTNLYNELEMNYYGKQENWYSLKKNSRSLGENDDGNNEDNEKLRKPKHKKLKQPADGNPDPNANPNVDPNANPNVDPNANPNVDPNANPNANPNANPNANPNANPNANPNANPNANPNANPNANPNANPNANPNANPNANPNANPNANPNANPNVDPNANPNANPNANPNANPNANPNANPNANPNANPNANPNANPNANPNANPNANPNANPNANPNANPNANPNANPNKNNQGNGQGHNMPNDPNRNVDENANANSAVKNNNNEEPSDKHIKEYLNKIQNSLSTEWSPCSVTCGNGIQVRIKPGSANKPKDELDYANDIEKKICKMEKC

| Binder | binding score |
| --- | --- |
| ADP096 (protein, bait human Fc-tagged dimer) GIQYQTRSPSVCLSEACVSVTSSILSSMDPTVDPCHDFFSYACGGWIKANPVPDGHSRWGTFSNLWEHNQAIIKHLLENSTASVSEAERKAQVYYRACMNETRIEELRAKPLMELIERLGGWNITGPWAKDNFQDTLQVVTAHYRTSPFFSVYVSADSKNSNSNVIQVDQSGLGLPSRDYYLNKTENEKVLTGYLNYMVQLGKLLGGGDEEAIRPQMQQILDFETALANITIPQEKRRDEELIYHKVTAAELQTLAPAINWLPFLNTIFYPVEINESEPIVVYDKEYLEQISTLINTTDRCLLNNYMIWNLVRKTSSFLDQRFQDADEKFMEVMYGTKKTCLPRWKFCVSDTENNLGFALGPMFVKATFAEDSKSIATEIILEIKKAFEESLSTLKWMDEETRKSAKEKADAIYNMIGYPNFIMDPKELDKVFNDYTAVPDLYFENAMRFFNFSWRVTADQLRKAPNRDQWSMTPPMVNAYYSPTKNEIVFPAGILQAPFYTRSSPKALNFGGIGVVVGHELTHAFDDQGREYDKDGNLRPWWKNSSVEAFKRQTECMVEQYSNYSVNGEPVNGRHTLGENIADNGGLKAAYRAYQNWVKKNGAEHSLPTLGLTNNQLFFLGFAQVWCSVRTPESSHEGLITDPHSPSRFRVIGSLSNSKEFSEHFRCPPGSPMNPPHKCEVW | 0.507 |
| MASLGHILVFCVGLLTMAKAESPKEHDPFTYDYQS (also: human Fc-tagged dimer) [ADP327] | 1.89 |
| ADP359 (protein, bait human Fc-tagged dimer) MAAEWASRFWLWATLLIPAAAVYEDQVGKFDWRQQYVGKVKFASLEFSPGSKKLVVATEKNVIAALNSRTGEILWRHVDKGTAEGAVDAMLLHGQDVITVSNGGRIMRSWETNIGGLNWEITLDSGSFQALGLVGLQESVRYIAVLKKTTLALHHLSSGHLKWVEHLPESDSIHYQMVYSYGSGVVWALGVVPFSHVNIVKFNVEDGEIVQQVRVSTPWLQHLSGACGVVDEAVLVCPDPSSRSLQTLALETEWELRQIPLQSLDLEFGSGFQPRVLPTQPNPVDASRAQFFLHLSPSHYALLQYHYGTLSLLKNFPQTALVSFATTGEKTVAAVMACRNEVQKSSSSEDGSMGSFSEKSSSKDSLACFNQTYTINLYLVETGRRLLDTTITFSLEQSGTRPERLYIQVFLKKDDSVGYRALVQTEDHLLLFLQQLAGKVVLWSREESLAEVVCLEMVDLPLTGAQAELEGEFGKKADGLLGMFLKRLSSQLILLQAWTSHLWKMFYDARKPRSQIKNEINIDTLARDEFNLQKMMVMVTASGKLFGIESSSGTILWKQYLPNVKPDSSFKLMVQRTTAHFPHPPQCTLLVKDKESGMSSLYVFNPIFGKWSQVAPPVLKRPILQSLLLPVMDQDYAKVLLLIDDEYKVTAFPATRNVLRQLHELAPSIFFYLVDAEQGRLCGYRLRKDLTTELSWELTIPPEVQRIVKVKGKRSSEHVHSQGRVMGDRSVLYKSLNPNLLAVVTESTDAHHERTFIGIFLIDGVTGRIIHSSVQKKAKGPVHIVHSENWVVYQYWNTKARRNEFTVLELYEGTEQYNATAFSSLDRPQLPQVLQQSYIFPSSISAMEATITERGITSRHLLIGLPSGAILSLPKALLDPRRPEIPTEQSREENLIPYSPDVQIHAERFINYNQTVSRMRGIYTAPSGLESTCLVVAYGLDIYQTRVYPS | 0.432 |
| ADP273 (protein, bait human Fc-tagged dimer) RGSCQACGDSVLVVSEDVNYEPDLDFHQGRLYWSDLQAMFLQFLGEGRLEDTIRQTSLRERVAGSAGMAALTQDIRAALSRQKLDHVWTDTHYVGLQFPDPAHPNTLHWVDEAGKVGEQLPLEDPDVYCPYSAIGNVTGELVYAHYGRPEDLQDLRARGVDPVGRLLLVRVGVISFAQKVTNAQDFGAQGVLIYPEPADFSQDPPKPSLSSQQAVYGHVHLGTGDPYTPGFPSFNQTQFPPVASSGLPSIPAQPISADIASRLLRKLKGPVAPQEWQGSLLGSPYHLGPGPRLRLVVNNHRTSTPINNIFGCIEGRSEPDHYVVIGAQRDAWGPGAAKSAVGTAILLELVRTFSSMVSNGFRPRRSLLFISWDGGDFGSVGSTEWLEGYLSVLHLKAVVYVSLDNAVLGDDKFHAKTSPLLTSLIESVLKQVDSPNHSGQTLYEQVVFTNPSWDAEVIRPLPMDSSAYSFTAFVGVPAVEFSFMEDDQAYPFLHTKEDTYENLHKVLQGRLPAVAQAVAQLAGQLLIRLSHDRLLPLDFGRYGDVVLRHIGNLNEFSGDLKARGLTLQWVYSARGDYIRAAEKLRQEIYSSEERDERLTRMYNVRIMRVEFYFLSQYVSPADSPFRHIFMGRGDHTLGALLDHLRLLRSNSSGTPGATSSTGFQESRFRRQLALLTWTLQGAANALSGDVWNIDNNF | 0.72 |
| ADP383 (protein, bait human Fc-tagged dimer) GLKPSCAKEVKSCKGRCFERTFGNCRCDAACVELGNCCLDYQETCIEPEHIWTCNKFRCGEKRLTRSLCACSDDCKDKGDCCINYSSVCQGEKSWVEEPCESINEPQCPAGFETPPTLLFSLDGFRAEYLHTWGGLLPVISKLKKCGTYTKNMRPVYPTKTFPNHYSIVTGLYPESHGIIDNKMYDPKMNASFSLKSKEKFNPEWYKGEPIWVTAKYQGLKSGTFFWPGSDVEINGIFPDIYKMYNGSVPFEERILAVLQWLQLPKDERPHFYTLYLEEPDSSGHSYGPVSSEVIKALQRVDGMVGMLMDGLKELNLHRCLNLILISDHGMEQGSCKKYIYLNKYLGDVKNIKVIYGPAARLRPSDVPDKYYSFNYEGIARNLSCREPNQHFKPYLKHFLPKRLHFAKSDRIEPLTFYLDPQWQLALNPSERKYCGSGFHGSDNVFSNMQALFVGYGPGFKHGIEADTFENIEVYNLMCDLLNLTPAPNNGTHGSLNHLLKNPVYTPKHPKEVHPLVQCPFTRNPRDNLGCSCNPSILPIEDFQTQFNLTVAEEKIIKHETLPYGRPRVLQKENTICLLSQHQFMSGYSQDILMPLWTSYTVDRNDSFSTEDFSNCLYQDFRIPLSPVHKCSFYKNNTKVSYGFLSPPQLNKNSSGIYSEALLTTNIVPMYQSFQVIWRYFHDTLLRKYAEERNGVNVVSGPVFDFDYDGRCDSLENLRQKRRVIRNQEILIPTHFFIVLTSCKDTSQTPLHCENLDTLAFILPHRTDNSESCVHGKHDSSWVEELLMLHRARITDVEHITGLSFYQQRKEPVSDILKLKTHLPTFSQED | 0.856 |
| ADP316 (protein, bait human Fc-tagged dimer) MAAAGAAVARSPGIGAGPALRARRSPPPRAARLPRLLVLLAAAAVGPGAGGAARLYRAGEDAVWVLDSGSVRGATANSSAAWLVQFYSSWCGHCIGYAPTWRALAGDVRDWASAIRVAALDCMEEKNQAVCHDYDIHFYPTFRYFKAFTKEFTTGENFKGPDRELRTVRQTMIDFLQNHTEGSRPPACPRLDPIQPSDVLSLLDNRGSHYVAIVFESNSSYLGREVILDLIPYESIVVTRALDGDKAFLEKLGVSSVPSCYLIYPNGSHGLINVVKPLRAFFSSYLKSLPDVRKKSLPLPEKPHKEENSEIVVWREFDKSKLYTVDLESGLHYLLRVELAAHKSLAGAELKTLKDFVTVLAKLFPGRPPVKKLLEMLQEWLASLPLDRIPYNAVLDLVNNKMRISGIFLTNHIKWVGCQGSRSELRGYPCSLWKLFHTLTVEASTHPDALVGTGFEDDPQAVLQTMRRYVHTFFGCKECGEHFEEMAKESMDSVKTPDQAILWLWKKHNMVNGRLAGHLSEDPRFPKLQWPTPDLCPACHEEIKGLASWDEGHVLTFLKQHYGRDNLLDTYSADQGDSSEGGTLARGEEEEKRLTPPEVSHGDRDTQSVRPPGALGPRPALPESLHHSLDGKLQSLDGPGAHKEVGGAAPFLGVDFSSLDM | 1.06 |
| ADP333 (protein, bait human Fc-tagged dimer) MASVVLPSGSQCAAAAAAAAPPGLRLRLLLLLFSAAALIPTGDGQNLFTKDVTVIEGEVATISCQVNKSDDSVIQLLNPNRQTIYFRDFRPLKDSRFQLLNFSSSELKVSLTNVSISDEGRYFCQLYTDPPQESYTTITVLVPPRNLMIDIQKDTAVEGEEIEVNCTAMASKPATTIRWFKGNTELKGKSEVEEWSDMYTVTSQLMLKVHKEDDGVPVICQVEHPAVTGNLQTQRYLEVQYKPQVHIQMTYPLQGLTREGDALELTCEAIGKPQPVMVTWVRVDDEMPQHAVLSGPNLFINNLNKTDNGTYRCEASNIVGKAHSDYMLYVYDPPTTIPPPTT | 1.11 |
